Reference: patent US20210032299A1 (Eli Lilly, published 2021)
Starred links: 1 amine or outer side, 2 acyl side, 3 side chain; linkers in the order of their positions; H or OH if unused. Non-standard residues stand in square brackets, D forms with d. Groups on a side chain read outwards from the residue. No end group written: not given here. *: point of attachment. C20 diacid = O=C(O)CCCCCCCCCCCCCCCCCCC(=O)*; C18 diacid = O=C(O)CCCCCCCCCCCCCCCCC(=O)*; γGlu = O=C(O)[C@H](CCC(=O)[*:2])N[*:1]; 4Pal = N[C@@H](Cc1ccncc1)C(=O)O; αMeL = CC(C)C[C@](C)(N)C(=O)O; AEEA = NCCOCCOCC(=O)O; Aib = CC(C)(N)C(=O)O

T1: human glucose-dependent insulinotropic polypeptide (GIP) receptor (human, UniProt P48546 22-466)
T1 construct: whole, on cells; Assayed as crude membranes of stably transfected CHO cells; also called hGIPR; human GIP receptor
T1 sequence (looked up): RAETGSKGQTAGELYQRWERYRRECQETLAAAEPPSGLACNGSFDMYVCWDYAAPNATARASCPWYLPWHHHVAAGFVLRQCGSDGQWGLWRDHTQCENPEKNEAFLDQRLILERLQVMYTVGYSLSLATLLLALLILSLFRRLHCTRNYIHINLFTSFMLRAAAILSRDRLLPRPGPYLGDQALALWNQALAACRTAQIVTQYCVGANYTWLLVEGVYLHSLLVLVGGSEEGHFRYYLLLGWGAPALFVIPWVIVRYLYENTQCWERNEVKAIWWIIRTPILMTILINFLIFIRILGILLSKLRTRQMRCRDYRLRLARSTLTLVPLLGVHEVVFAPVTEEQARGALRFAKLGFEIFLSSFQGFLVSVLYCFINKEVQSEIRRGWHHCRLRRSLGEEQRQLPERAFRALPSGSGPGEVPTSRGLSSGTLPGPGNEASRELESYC


Legend:
human GLP-1 receptor = target: T2, human GLP-1 receptor (human, UniProt P43220 24-463); experiment: SPA, displacement of [125I]-GLP-1 from hGLP-1R membranes, 0.1% bacitracin
T2 construct: whole, on cells; Assayed as crude membranes of stably transfected HEK293 cells; also called hGLP1R; hGLP-1R
Description: The binding buffer contains 25 mM HEPES, pH 7.4, 2.5 mM CaCl₂, 1 mM MgCl₂, 0.1% (w/v) bacitracin, 0.003% (w/v) TWEEN®-20, and Roche Complete™ Protease Inhibitors without EDTA.
(§1) Data are analyzed using four-parameter (curve maximum, curve minimum, […], Hill slope) nonlinear regression routines (Genedata Screener, version 12.0.4, Genedata AG, Basal, Switzerland). […] Values for Kᵢ are reported as the geometric mean, with error expressed as the standard error of the mean (SEM) and n is equal to the number of independent replicates (determined in assays performed on different days). Geometric Means are calculated as follows: […]

[1] = target: T1, human glucose-dependent insulinotropic …; experiment: SPA, displacement of [125I]-GIP from hGIPR membranes, 0.1% bacitracin
Description: The binding buffer contains 25 mM HEPES, pH 7.4, 2.5 mM CaCl₂, 1 mM MgCl₂, 0.1% (w/v) bacitracin, 0.003% (w/v) TWEEN®-20, and Roche Complete™ Protease Inhibitors without EDTA. […] Plates are sealed and mixed on a plate shaker (setting 6) for 1 minute and read with a PerkinElmer Trilux MicroBeta® scintillation counter after 2.5 to 12 hours of incubation/settling time at room temperature.
as §1

| Binder | Ki (human GLP-1 receptor) | Ki [1] |
| --- | --- | --- |
| Y[dA]EGTLISDYSILLDKK([AEEA-AEEA-γGlu-C18 diacid])AQ[Aib]DFVNWLLAQGPSSGAPPPS-NH2 (N-terminus assumed; SMILES CC[C@H](C)[C@H](NC(=O)[C@H](CO)NC(=O)[C@H](Cc1ccc(O)cc1)NC(=O)[C@H](CC(=O)O)NC(=O)[C@H](CO)NC(=O)[C@@H](NC(=O)[C@H](CC(C)C)NC(=O)[C@@H](NC(=O)CNC(=O)[C@H](CCC(=O)O)NC(=O)[C@@H](C)NC(=O)[C@@H](N)Cc1ccc(O)cc1)[C@@H](C)O)[C@@H](C)CC)C(=O)N[C@@H](CC(C)C)C(=O)N[C@@H](CC(C)C)C(=O)N[C@@H](CC(=O)O)C(=O)N[C@@H](CCCCN)C(=O)N[C@@H](CCCCNC(=O)COCCOCCNC(=O)COCCOCCNC(=O)CC[C@H](NC(=O)CCCCCCCCCCCCCCCCC(=O)O)C(=O)O)C(=O)N[C@@H](C)C(=O)N[C@@H](CCC(N)=O)C(=O)NC(C)(C)C(=O)N[C@@H](CC(=O)O)C(=O)N[C@@H](Cc1ccccc1)C(=O)N[C@H](C(=O)N[C@@H](CC(N)=O)C(=O)N[C@@H](Cc1c[nH]c2ccccc12)C(=O)N[C@@H](CC(C)C)C(=O)N[C@@H](CC(C)C)C(=O)N[C@@H](C)C(=O)N[C@@H](CCC(N)=O)C(=O)NCC(=O)N1CCC[C@H]1C(=O)N[C@@H](CO)C(=O)N[C@@H](CO)C(=O)NCC(=O)N[C@@H](C)C(=O)N1CCC[C@H]1C(=O)N1CCC[C@H]1C(=O)N1CCC[C@H]1C(=O)N[C@@H](CO)C(N)=O)C(C)C) [Example 32] | 85.2 nM | 0.0343 nM |
| Y[Aib]EGTFISDYSI[Aib]LDKK([AEEA-AEEA-γGlu-C18 diacid])HQ[Aib]DFVE[4Pal]LLAGGPSSGAPPPS-NH2 (N-terminus assumed; SMILES CC[C@H](C)[C@H](NC(=O)[C@H](Cc1ccccc1)NC(=O)[C@@H](NC(=O)CNC(=O)[C@H](CCC(=O)O)NC(=O)C(C)(C)NC(=O)[C@@H](N)Cc1ccc(O)cc1)[C@@H](C)O)C(=O)N[C@@H](CO)C(=O)N[C@@H](CC(=O)O)C(=O)N[C@@H](Cc1ccc(O)cc1)C(=O)N[C@@H](CO)C(=O)N[C@H](C(=O)NC(C)(C)C(=O)N[C@@H](CC(C)C)C(=O)N[C@@H](CC(=O)O)C(=O)N[C@@H](CCCCN)C(=O)N[C@@H](CCCCNC(=O)COCCOCCNC(=O)COCCOCCNC(=O)CC[C@H](NC(=O)CCCCCCCCCCCCCCCCC(=O)O)C(=O)O)C(=O)N[C@@H](Cc1c[nH]cn1)C(=O)N[C@@H](CCC(N)=O)C(=O)NC(C)(C)C(=O)N[C@@H](CC(=O)O)C(=O)N[C@@H](Cc1ccccc1)C(=O)N[C@H](C(=O)N[C@@H](CCC(=O)O)C(=O)N[C@@H](Cc1ccncc1)C(=O)N[C@@H](CC(C)C)C(=O)N[C@@H](CC(C)C)C(=O)N[C@@H](C)C(=O)NCC(=O)NCC(=O)N1CCC[C@H]1C(=O)N[C@@H](CO)C(=O)N[C@@H](CO)C(=O)NCC(=O)N[C@@H](C)C(=O)N1CCC[C@H]1C(=O)N1CCC[C@H]1C(=O)N1CCC[C@H]1C(=O)N[C@@H](CO)C(N)=O)C(C)C)[C@@H](C)CC) [Example 24] | 729 nM | 0.254 nM |
| Y[Aib]EGTFISDYSI[αMeL]LDEK([AEEA-AEEA-γGlu-C20 diacid])HQ[Aib]DFVE[4Pal]LLAQGPSSGAPPPS-NH2 (N-terminus assumed; SMILES CC[C@H](C)[C@H](NC(=O)[C@H](Cc1ccccc1)NC(=O)[C@@H](NC(=O)CNC(=O)[C@H](CCC(=O)O)NC(=O)C(C)(C)NC(=O)[C@@H](N)Cc1ccc(O)cc1)[C@@H](C)O)C(=O)N[C@@H](CO)C(=O)N[C@@H](CC(=O)O)C(=O)N[C@@H](Cc1ccc(O)cc1)C(=O)N[C@@H](CO)C(=O)N[C@H](C(=O)N[C@@](C)(CC(C)C)C(=O)N[C@@H](CC(C)C)C(=O)N[C@@H](CC(=O)O)C(=O)N[C@@H](CCC(=O)O)C(=O)N[C@@H](CCCCNC(=O)COCCOCCNC(=O)COCCOCCNC(=O)CC[C@H](NC(=O)CCCCCCCCCCCCCCCCCCC(=O)O)C(=O)O)C(=O)N[C@@H](Cc1c[nH]cn1)C(=O)N[C@@H](CCC(N)=O)C(=O)NC(C)(C)C(=O)N[C@@H](CC(=O)O)C(=O)N[C@@H](Cc1ccccc1)C(=O)N[C@H](C(=O)N[C@@H](CCC(=O)O)C(=O)N[C@@H](Cc1ccncc1)C(=O)N[C@@H](CC(C)C)C(=O)N[C@@H](CC(C)C)C(=O)N[C@@H](C)C(=O)N[C@@H](CCC(N)=O)C(=O)NCC(=O)N1CCC[C@H]1C(=O)N[C@@H](CO)C(=O)N[C@@H](CO)C(=O)NCC(=O)N[C@@H](C)C(=O)N1CCC[C@H]1C(=O)N1CCC[C@H]1C(=O)N1CCC[C@H]1C(=O)N[C@@H](CO)C(N)=O)C(C)C)[C@@H](C)CC) [Example 84] | 325 nM | 0.0584 nM |
| Y[Aib]EGTFISDYSI[αMeL]LDEK([AEEA-AEEA-γGlu-C20 diacid])HQ[Aib]DFVE[4Pal]LLATGPSSGAPPPS-NH2 (N-terminus assumed; SMILES CC[C@H](C)[C@H](NC(=O)[C@H](Cc1ccccc1)NC(=O)[C@@H](NC(=O)CNC(=O)[C@H](CCC(=O)O)NC(=O)C(C)(C)NC(=O)[C@@H](N)Cc1ccc(O)cc1)[C@@H](C)O)C(=O)N[C@@H](CO)C(=O)N[C@@H](CC(=O)O)C(=O)N[C@@H](Cc1ccc(O)cc1)C(=O)N[C@@H](CO)C(=O)N[C@H](C(=O)N[C@@](C)(CC(C)C)C(=O)N[C@@H](CC(C)C)C(=O)N[C@@H](CC(=O)O)C(=O)N[C@@H](CCC(=O)O)C(=O)N[C@@H](CCCCNC(=O)COCCOCCNC(=O)COCCOCCNC(=O)CC[C@H](NC(=O)CCCCCCCCCCCCCCCCCCC(=O)O)C(=O)O)C(=O)N[C@@H](Cc1c[nH]cn1)C(=O)N[C@@H](CCC(N)=O)C(=O)NC(C)(C)C(=O)N[C@@H](CC(=O)O)C(=O)N[C@@H](Cc1ccccc1)C(=O)N[C@H](C(=O)N[C@@H](CCC(=O)O)C(=O)N[C@@H](Cc1ccncc1)C(=O)N[C@@H](CC(C)C)C(=O)N[C@@H](CC(C)C)C(=O)N[C@@H](C)C(=O)N[C@H](C(=O)NCC(=O)N1CCC[C@H]1C(=O)N[C@@H](CO)C(=O)N[C@@H](CO)C(=O)NCC(=O)N[C@@H](C)C(=O)N1CCC[C@H]1C(=O)N1CCC[C@H]1C(=O)N1CCC[C@H]1C(=O)N[C@@H](CO)C(N)=O)[C@@H](C)O)C(C)C)[C@@H](C)CC) [Example 83] | 452 nM | 0.116 nM |
| Y[dA]EGTFISDYSILLDKK([AEEA-AEEA-γGlu-C20 diacid])HQQDFVNWLLAGGPSSGAPPPS-NH2 (N-terminus assumed; SMILES CC[C@H](C)[C@H](NC(=O)[C@H](CO)NC(=O)[C@H](Cc1ccc(O)cc1)NC(=O)[C@H](CC(=O)O)NC(=O)[C@H](CO)NC(=O)[C@@H](NC(=O)[C@H](Cc1ccccc1)NC(=O)[C@@H](NC(=O)CNC(=O)[C@H](CCC(=O)O)NC(=O)[C@@H](C)NC(=O)[C@@H](N)Cc1ccc(O)cc1)[C@@H](C)O)[C@@H](C)CC)C(=O)N[C@@H](CC(C)C)C(=O)N[C@@H](CC(C)C)C(=O)N[C@@H](CC(=O)O)C(=O)N[C@@H](CCCCN)C(=O)N[C@@H](CCCCNC(=O)COCCOCCNC(=O)COCCOCCNC(=O)CC[C@H](NC(=O)CCCCCCCCCCCCCCCCCCC(=O)O)C(=O)O)C(=O)N[C@@H](Cc1c[nH]cn1)C(=O)N[C@@H](CCC(N)=O)C(=O)N[C@@H](CCC(N)=O)C(=O)N[C@@H](CC(=O)O)C(=O)N[C@@H](Cc1ccccc1)C(=O)N[C@H](C(=O)N[C@@H](CC(N)=O)C(=O)N[C@@H](Cc1c[nH]c2ccccc12)C(=O)N[C@@H](CC(C)C)C(=O)N[C@@H](CC(C)C)C(=O)N[C@@H](C)C(=O)NCC(=O)NCC(=O)N1CCC[C@H]1C(=O)N[C@@H](CO)C(=O)N[C@@H](CO)C(=O)NCC(=O)N[C@@H](C)C(=O)N1CCC[C@H]1C(=O)N1CCC[C@H]1C(=O)N1CCC[C@H]1C(=O)N[C@@H](CO)C(N)=O)C(C)C) [Example 10] | 60.7 nM | 0.159 nM |
